This is an account of results in patent US20240392004A1 (IMMUNOWAKE, published 2024).

Broadly, the Kd is the equilibrium constant for the complex coming apart. A lower Kd goes with tighter binding.

Assay [1] deals with T1, human PD-1 (human, UniProt Q15116 25-167, limits assumed).
T1 construct: also called hPD-1
The assay is described as follows: Biacore and cell-based assays, calibrated by wildtype nivolumab binding affinity.

The target in assay [2] is T2, human PD-1 on cells (HEK-PD-1 reporter cells; activated PBMC) (human, UniProt Q15116 25-288). As to the kind of experiment: cell-based or functional assay.
T2 sequence (Q15116 25-288): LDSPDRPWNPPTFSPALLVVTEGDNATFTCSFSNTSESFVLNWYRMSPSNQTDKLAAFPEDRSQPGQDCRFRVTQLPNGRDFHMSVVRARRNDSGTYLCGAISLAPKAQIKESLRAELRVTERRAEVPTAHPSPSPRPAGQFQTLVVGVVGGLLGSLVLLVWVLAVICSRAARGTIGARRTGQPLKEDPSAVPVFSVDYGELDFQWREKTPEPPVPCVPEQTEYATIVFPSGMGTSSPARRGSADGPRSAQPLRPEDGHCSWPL
Assay [3] has as its target T1, human PD-1. As to the kind of experiment: same value as Table 11 (measured on the antibody without IL-12).
The target of assay [4] is T2, human PD-1 on cells (HEK-PD-1 reporter …). As to the kind of experiment: cell-based or functional assay. This is another data set of the same source.
The target of assay [5] is human IL-12 receptor complex (IL-12Rβ1 and IL-12Rβ2) (human, UniProt P42701 24-662; Q99665 24-862). As to the kind of experiment: cell-based or functional assay.
human IL-12 receptor complex (IL-12Rβ1 and IL-12Rβ2), sequence (Q99665 24-862, chain 2 of 2, other chains not shown): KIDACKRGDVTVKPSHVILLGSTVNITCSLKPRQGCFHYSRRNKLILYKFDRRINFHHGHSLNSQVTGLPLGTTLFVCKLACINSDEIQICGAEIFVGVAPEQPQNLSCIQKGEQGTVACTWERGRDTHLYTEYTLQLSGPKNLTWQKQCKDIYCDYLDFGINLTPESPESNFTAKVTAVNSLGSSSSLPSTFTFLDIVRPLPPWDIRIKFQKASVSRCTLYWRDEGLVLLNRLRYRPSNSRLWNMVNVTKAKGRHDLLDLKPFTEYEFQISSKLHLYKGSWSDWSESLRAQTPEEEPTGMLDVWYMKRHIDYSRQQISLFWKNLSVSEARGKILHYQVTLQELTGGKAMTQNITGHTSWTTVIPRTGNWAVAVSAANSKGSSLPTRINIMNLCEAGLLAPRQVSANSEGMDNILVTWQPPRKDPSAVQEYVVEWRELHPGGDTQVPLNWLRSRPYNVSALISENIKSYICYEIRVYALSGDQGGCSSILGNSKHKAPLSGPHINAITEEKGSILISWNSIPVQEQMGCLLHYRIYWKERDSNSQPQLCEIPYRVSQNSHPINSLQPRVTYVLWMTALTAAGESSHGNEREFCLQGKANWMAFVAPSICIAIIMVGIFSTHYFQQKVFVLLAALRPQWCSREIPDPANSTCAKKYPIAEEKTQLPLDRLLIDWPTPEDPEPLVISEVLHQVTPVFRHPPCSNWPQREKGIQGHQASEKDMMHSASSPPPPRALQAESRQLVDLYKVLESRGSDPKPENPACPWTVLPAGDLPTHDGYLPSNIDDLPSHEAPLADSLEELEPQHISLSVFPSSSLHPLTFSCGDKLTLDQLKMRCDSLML

T1 sequence (Q15116 25-167 limits assumed): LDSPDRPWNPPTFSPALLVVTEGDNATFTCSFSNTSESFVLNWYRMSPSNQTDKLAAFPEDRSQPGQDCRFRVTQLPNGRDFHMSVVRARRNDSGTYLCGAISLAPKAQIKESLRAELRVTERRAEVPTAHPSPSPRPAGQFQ

B1: anti-PD-1 antibody HC-CDR3(D100G) (antibody, V domains shown)
VH: QVQLVESGGGVVQPGRSLRLDCKASGITFSNSGMHWVRQAPGKGLEWVAVIWYDGSKRYYADSVKGRFTISRDNSKNTLFLQMNSLRAEDTAVYYCATNGDYWGQGTLVTVSS
VL: EIVLTQSPATLSLSPGERATLSCRASQSVSSYLAWYQQKPGQAPRLLIYDASNRATGIPARFSGSGSGTDFTLTISSLEPEDFAVYYCQQSSNWPRTFGQGTKVEIKR
notes: constant parts as m82
Molecule B1 had a Kd in assay [1] of 130 nM.

B2: anti-PD-1 antibody HC-CDR3(D100R) (antibody, V domains shown)
VH: QVQLVESGGGVVQPGRSLRLDCKASGITFSNSGMHWVRQAPGKGLEWVAVIWYDGSKRYYADSVKGRFTISRDNSKNTLFLQMNSLRAEDTAVYYCATNRDYWGQGTLVTVSS
VL: EIVLTQSPATLSLSPGERATLSCRASQSVSSYLAWYQQKPGQAPRLLIYDASNRATGIPARFSGSGSGTDFTLTISSLEPEDFAVYYCQQSSNWPRTFGQGTKVEIKR
notes: constant parts as m82
With B2, the Kd in assay [1] was 910 nM.

B3: anti-PD-1 antibody HC-CDR3(N99G) (antibody, V domains shown)
VH: QVQLVESGGGVVQPGRSLRLDCKASGITFSNSGMHWVRQAPGKGLEWVAVIWYDGSKRYYADSVKGRFTISRDNSKNTLFLQMNSLRAEDTAVYYCATGDDYWGQGTLVTVSS
VL: EIVLTQSPATLSLSPGERATLSCRASQSVSSYLAWYQQKPGQAPRLLIYDASNRATGIPARFSGSGSGTDFTLTISSLEPEDFAVYYCQQSSNWPRTFGQGTKVEIKR
notes: constant parts as m82
B3 displayed a Kd in assay [1] of 2300 nM.

B4: anti-PD-1 antibody HC-CDR3(D100N) (antibody, V domains shown)
VH: QVQLVESGGGVVQPGRSLRLDCKASGITFSNSGMHWVRQAPGKGLEWVAVIWYDGSKRYYADSVKGRFTISRDNSKNTLFLQMNSLRAEDTAVYYCATNNDYWGQGTLVTVSS
VL: EIVLTQSPATLSLSPGERATLSCRASQSVSSYLAWYQQKPGQAPRLLIYDASNRATGIPARFSGSGSGTDFTLTISSLEPEDFAVYYCQQSSNWPRTFGQGTKVEIKR
notes: constant parts as m82
With B4, in assay [1], the Kd was 25 nM.

B5: IL-12(E59A/F60A)/PD-L1(I54Q/Y56F/E58M/R113T/M115L/S117A/G119K)-Fc (IL-12 at hinge) (Fc fusion)
chain 1: FTVTVPKDLYVVEYGSNMTIECKFPVEKQLDLAALQVFWMMEDKNIIQFVHGEEDLKVQHSSYRQRARLLKDQLSLGNAALQITDVKLQDAGVYTCLIAYKGADYKRITVKVNAPYNKINQRILVVDPVTSEHELTCQAEGYPKAEVIWTSSDHQVLSGKTTTTNSKREEKLFNVTSTLRINTTTNEIFYCTFRRLDPEENHTAELVIPELPLAHPPNERGSGDKTHTCPPCPAPEKKGGPSVFLFPPKPKDTLMISRTPEVTCVVVDVSHEDPEVKFNWYVDGVEVHNAKTKPREEQYNSTYRVVSVLTVLHQDWLNGKEYKCKVSNKALPAPIEKTISKAKGQPREPQVYVLPPSREEMTKNQVSLLCLVKGFYPSDIAVEWESNGQPENRYMTWPPVLDSDGSFFLYSKLTVDKSRWQQGNVFSCSVMHEALHNHYTQKSLSLSPGK
chain 2: FTVTVPKDLYVVEYGSNMTIECKFPVEKQLDLAALQVFWMMEDKNIIQFVHGEEDLKVQHSSYRQRARLLKDQLSLGNAALQITDVKLQDAGVYTCLIAYKGADYKRITVKVNAPYNKINQRILVVDPVTSEHELTCQAEGYPKAEVIWTSSDHQVLSGKTTTTNSKREEKLFNVTSTLRINTTTNEIFYCTFRRLDPEENHTAELVIPELPLAHPPNERGSGIWELKKDVYVVELDWYPDAPGEMVVLTCDTPEEDGITWTLDQSSEVLGSGKTLTIQVKAAGDAGQYTCHKGGEVLSHSLLLLHKKEDGIWSTDILKDQKEPKNKTFLRCEAKNYSGRFTCWWLTTISTDLTFSVKSSRGSSDPQGVTCGAATLSAERVRGDNKEYEYSVECQEDSACPAAEESLPIEVMVDAVHKLKYENYTSSFFIRDIIKPDPPKNLQLKPLKNSRQVEVSWEYPDTWSTPHSYFSLTFCVQVQGKSKREKKDRVFTDKTSATVICRKNASISVRAQDRYYSSSWSEWASVPCSGGGGSGGGGSGGGGSGGGGSGRNLPVATPDPGMFPCLHHSQNLLRAVSNMLQKARQTLEFYPCTSEEIDHEDITKDKTSTVEACLPLELTKNESCLNSRETSFITNGSCLASRKTSFMMALCLSSIYEDLKMYQVEFKTMNAKLLMDPKRQIFLDQNMLAVIDELMQALNFNSETVPQKSSLEEPDFYKTKIKLCILLHAFRIRAVTIDRVMSYLNASDKTHTCPPCPAPEDEGGPSVFLFPPKPKDTLMISRTPEVTCVVVDVSHEDPEVKFNWYVDGVEVHNAKTKPREEQYNSTYRVVSVLTVLHQDWLNGKEYKCKVSNKALPAPIEKTISKAKGQPREPQVYVYPPSREEMTKNQVSLTCLVKGFYPSDIAVEWESNGQPENNYKTTPPVLDEDGSFALVSKLTVDKSRWQQGNVFSCSVMHEALHNHYTQKSLSLSPGK
Consider B5, for which the “Biological activity of IL-12, HEK-PD-1-IL-12 reporter assay, % of rIL-12” value in assay [2] was found to be 126%.

B6: IL-12(F60A)/PD-L1(I54Q/Y56F/E58M/R113T/M115L/S117A/G119K)-Fc (IL-12 at hinge) (Fc fusion)
chain 1: FTVTVPKDLYVVEYGSNMTIECKFPVEKQLDLAALQVFWMMEDKNIIQFVHGEEDLKVQHSSYRQRARLLKDQLSLGNAALQITDVKLQDAGVYTCLIAYKGADYKRITVKVNAPYNKINQRILVVDPVTSEHELTCQAEGYPKAEVIWTSSDHQVLSGKTTTTNSKREEKLFNVTSTLRINTTTNEIFYCTFRRLDPEENHTAELVIPELPLAHPPNERGSGDKTHTCPPCPAPEKKGGPSVFLFPPKPKDTLMISRTPEVTCVVVDVSHEDPEVKFNWYVDGVEVHNAKTKPREEQYNSTYRVVSVLTVLHQDWLNGKEYKCKVSNKALPAPIEKTISKAKGQPREPQVYVLPPSREEMTKNQVSLLCLVKGFYPSDIAVEWESNGQPENRYMTWPPVLDSDGSFFLYSKLTVDKSRWQQGNVFSCSVMHEALHNHYTQKSLSLSPGK
chain 2: FTVTVPKDLYVVEYGSNMTIECKFPVEKQLDLAALQVFWMMEDKNIIQFVHGEEDLKVQHSSYRQRARLLKDQLSLGNAALQITDVKLQDAGVYTCLIAYKGADYKRITVKVNAPYNKINQRILVVDPVTSEHELTCQAEGYPKAEVIWTSSDHQVLSGKTTTTNSKREEKLFNVTSTLRINTTTNEIFYCTFRRLDPEENHTAELVIPELPLAHPPNERGSGIWELKKDVYVVELDWYPDAPGEMVVLTCDTPEEDGITWTLDQSSEVLGSGKTLTIQVKEAGDAGQYTCHKGGEVLSHSLLLLHKKEDGIWSTDILKDQKEPKNKTFLRCEAKNYSGRFTCWWLTTISTDLTFSVKSSRGSSDPQGVTCGAATLSAERVRGDNKEYEYSVECQEDSACPAAEESLPIEVMVDAVHKLKYENYTSSFFIRDIIKPDPPKNLQLKPLKNSRQVEVSWEYPDTWSTPHSYFSLTFCVQVQGKSKREKKDRVFTDKTSATVICRKNASISVRAQDRYYSSSWSEWASVPCSGGGGSGGGGSGGGGSGGGGSGRNLPVATPDPGMFPCLHHSQNLLRAVSNMLQKARQTLEFYPCTSEEIDHEDITKDKTSTVEACLPLELTKNESCLNSRETSFITNGSCLASRKTSFMMALCLSSIYEDLKMYQVEFKTMNAKLLMDPKRQIFLDQNMLAVIDELMQALNFNSETVPQKSSLEEPDFYKTKIKLCILLHAFRIRAVTIDRVMSYLNASDKTHTCPPCPAPEDEGGPSVFLFPPKPKDTLMISRTPEVTCVVVDVSHEDPEVKFNWYVDGVEVHNAKTKPREEQYNSTYRVVSVLTVLHQDWLNGKEYKCKVSNKALPAPIEKTISKAKGQPREPQVYVYPPSREEMTKNQVSLTCLVKGFYPSDIAVEWESNGQPENNYKTTPPVLDEDGSFALVSKLTVDKSRWQQGNVFSCSVMHEALHNHYTQKSLSLSPGK
B6: the “Biological activity of IL-12, HEK-PD-1-IL-12 reporter assay, % of rIL-12” value in assay [2] is 234%.

B7: IL-12(E59A/F60A)/anti-PD-1(D100N) (antibody)
light: not shown
heavy: QVQLVESGGGVVQPGRSLRLDCKASGITFSNSGMHWVRQAPGKGLEWVAVIWYDGSKRYYADSVKGRFTISRDNSKNTLFLQMNSLRAEDTAVYYCATNNDYWGQGTLVTVSSASTKGPSVFPLAPSSKSTSGGTAALGCLVKDYFPEPVTVSWNSGALTSGVHTFPAVLQSSGLYSLSSVVTVPSSSLGTQTYICNVNHKPSNTKVDKKVEPKSCDKPGSGIWELKKDVYVVELDWYPDAPGEMVVLTCDTPEEDGITWTLDQSSEVLGSGKTLTIQVKAAGDAGQYTCHKGGEVLSHSLLLLHKKEDGIWSTDILKDQKEPKNKTFLRCEAKNYSGRFTCWWLTTISTDLTFSVKSSRGSSDPQGVTCGAATLSAERVRGDNKEYEYSVECQEDSACPAAEESLPIEVMVDAVHKLKYENYTSSFFIRDIIKPDPPKNLQLKPLKNSRQVEVSWEYPDTWSTPHSYFSLTFCVQVQGKSKREKKDRVFTDKTSATVICRKNASISVRAQDRYYSSSWSEWASVPCSGGGGSGGGGSGGGGSGGGGSGRNLPVATPDPGMFPCLHHSQNLLRAVSNMLQKARQTLEFYPCTSEEIDHEDITKDKTSTVEACLPLELTKNESCLNSRETSFITNGSCLASRKTSFMMALCLSSIYEDLKMYQVEFKTMNAKLLMDPKRQIFLDQNMLAVIDELMQALNFNSETVPQKSSLEEPDFYKTKIKLCILLHAFRIRAVTIDRVMSYLNASDKTHTCPPCPAPEDEGGPSVFLFPPKPKDTLMISRTPEVTCVVVDVSHEDPEVKFNWYVDGVEVHNAKTKPREEQYNSTYRVVSVLTVLHQDWLNGKEYKCKVSNKALPAPIEKTISKAKGQPREPQVYVYPPSREEMTKNQVSLTCLVKGFYPSDIAVEWESNGQPENNYKTTPPVLDEDGSFALVSKLTVDKSRWQQGNVFSCSVMHEALHNHYTQKSLSLSPGK
heavy (part 1 of 2): QVQLVESGGGVVQPGRSLRLDCKASGITFSNSGMHWVRQAPGKGLEWVAVIWYDGSKRYYADSVKGRFTISRDNSKNTLFLQMNSLRAEDTAVYYCATNNDYWGQGTLVTVSSAS
heavy (part 2 of 2): EPKSCDKTHTCPPCPAPEKKGGPSVFLFPPKPKDTLMISRTPEVTCVVVDVSHEDPEVKFNWYVDGVEVHNAKTKPREEQYNSTYRVVSVLTVLHQDWLNGKEYKCKVSNKALPAPIEKTISKAKGQPREPQVYVLPPSREEMTKNQVSLLCLVKGFYPSDIAVEWESNGQPENRYMTWPPVLDSDGSFFLYSKLTVDKSRWQQGNVFSCSVMHEALHNHYTQKSLSLSPGK
In assay [3], B7 returned a Kd of 25 nM. For the same molecule, in assay [4], the “IFN-γ release, activated PBMC” value stood at 820 ng/mL; the “IL-12 signal transduction, HEK-IL-12-PD-1 (high)” value worked out at 38%; the “IL-12 signal transduction, HEK-IL-12-PD-1 (low)” value was 33%. The “IL-12 signal transduction, HEK IL-12” value in assay [5] was less than 0.2%.
